From paper PMC3214759 (Biochemistry, 2011)
Where a chain is given by its changes, count along the chain named. Names may count otherwise.

B1: Rhizobium etli pyruvate carboxylase T882A mutant (enzyme)
chain: PISKILVANRSEIAIRVFRAANELGIKTVAIWAEEDKLALHRFKADESYQVGRGPHLARDLGPIESYLSIDEVIRVAKLSGADAIHPGYGLLSESPEFVDACNKAGIIFIGPKADTMRQLGNKVAARNLAISVGVPVVPATEPLPDDMAEVAKMAAAIGYPVMLKASWGGGGRGMRVIRSEADLAKEVTEAKREAMAAFGKDEVYLEKLVERARHVESQILGDTHGNVVHLFERDCSVQRRNQKVVERAPAPYLSEAQRQELAAYSLKIAGATNYIGAGTVEYLMDADTGKFYFIEVNPRIQVEHTVTEVVTGIDIVKAQIHILDGAAIGTPQSGVPNQEDIRLNGHALQCRVTTEDPEHNFIPDYGRITAYRSASGFGIRLDGGTSYSGAIITRYYDPLLVKVTAWAPNPLEAISRMDRALREFRIRGVATNLTFLEAIIGHPKFRDNSYTTRFIDTTPELFQQVKRQDRATKLLTYLADVTVNGHPEAKDRPKPLENAARPVVPYANGNGVKDGTKQLLDTLGPKKFGEWMRNEKRVLLTDTTMRDGHQSLLATRMRTYDIARIAGTYSHALPNLLSLECWGGATFDVSMRFLTEDPWERLALIREGAPNLLLQMLLRGANGVGYTNYPDNVVKYFVRQAAKGGIDLFRVFDCLNWVENMRVSMDAIAEENKLCEAAICYTGDILNSARPKYDLKYYTNLAVELEKAGAHIIAVKDMAGLLKPAAAKVLFKALREATGLPIHFHTHDTSGIAAATVLAAVEAGVDAVDAAMDALSGNTSQPCLGSIVEALSGSERDPGLDPAWIRRISFYWEAVRNQYAAFESDLKGPASEVYLHEMPGGQFTNLKEQARSLGLETRWHQVAQAYADANQMFGDIVKVAPSSKVVGDMALMMVSQDLTVADVVSPDREVSFPESVVSMLKGDLGQPPSGWPEALQKKALKGEKPYTVRPGSLLKEADLDAERKVIEKKLEREVSDFEFASYLMYPKVFTDFALASDTYGPVSVLPTPAYFYGLADGEELFADIEKGKTLVIVNQAVSATDSQGMVTVFFELNGQPRRIKVPDRAHGATGAAVRRKAEPGNAAHVGAPMPGVISRVFVSSGQAVNAGDVLVSIEAMKMETAIHAEKDGTIAEVLVKAGDQIDAKDLLAVYGG
modifications: biotin tethered to Lys1119
B2: wild-type Rhizobium etli pyruvate carboxylase (enzyme)
chain: B1 chain with A881T

How the values were obtained:
crystal structure = target: the molecule itself; experiment: crystal structure
SEC = target: the molecule itself; experiment: SEC

Row | Protein | stoichiometry N (crystal structure) | stoichiometry N (SEC)
1 | B1 | 4 | 
2 | B2 |  | 4
